According to IntAct's records for PubMed 34964704:

B1: Claudin-2 (Homo sapiens), P57739 (parent)
chain: MASLGLQLVGYILGLLGLLGTLVAMLLPSWKTSSYVGASIVTAVGFSKGLWMECATHSTGITQCDIYSTLLGLPADIQAAQAMMVTSSAISSLACIISVVGMRCTVFCQESRAKDRVAVAGGVFFILGGLLGFIPVAWNLHGILRDFYSPLVPDSMKFEIGEALYLGIISSLFSLIAGIILCFSCSSQRNRSNYYDAYQAQPLATRSSPRPGQPPKVKSEFNSYSLTGYV

Variants of: B1
Conditions: with ap2m1_human AP2M1, Q96CW1
Chain of ap2m1_human AP2M1, Q96CW1 (Q96CW1 whole entry): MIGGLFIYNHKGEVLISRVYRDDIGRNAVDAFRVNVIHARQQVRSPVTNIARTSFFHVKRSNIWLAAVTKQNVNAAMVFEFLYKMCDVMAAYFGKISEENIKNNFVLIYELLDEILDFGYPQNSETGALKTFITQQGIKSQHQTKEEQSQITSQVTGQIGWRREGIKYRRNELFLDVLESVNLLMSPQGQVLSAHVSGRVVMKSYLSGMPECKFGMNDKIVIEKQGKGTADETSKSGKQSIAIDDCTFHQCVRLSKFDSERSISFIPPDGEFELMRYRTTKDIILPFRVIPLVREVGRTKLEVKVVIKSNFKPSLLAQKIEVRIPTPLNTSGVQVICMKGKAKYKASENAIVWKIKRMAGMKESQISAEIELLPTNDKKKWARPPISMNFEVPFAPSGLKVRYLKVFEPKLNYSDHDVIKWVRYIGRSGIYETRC

Row | Variant | effect of a mutation on the interaction
1 | Y67A;L70A;Y148A;L151A | disrupting interaction strength
2 | Y148A;L151A | decreasing interaction strength
3 | Y67A;L70A | disrupting interaction strength

Variants of: B1
Conditions: with ap2m1_human AP2M1, Q96CW1
Remark: another data set of the same source

Row | Variant | effect of a mutation on the interaction
4 | Y67A;L70A;Y148A;L151A | disrupting interaction
